Laboratory results from patent US20070134249A1 (GENITOPE, published 2007).

Assays:
Assay in all cases: ELISA
Set-up in all cases: key: 0 = <0.5 OD, 1 = 0.5-1.0 OD, 4 = 1-4 OD
953 = biological target: T1, 953
T1 construct: H5-51 K4-1; also called PIN953
From the text: (§1) Before specificity screening, all of the clonal immunogen-positive hybridoma supernatants were re-screened on the immunogen, a non-family member Id protein, and KLH, if animals were immunized with Id protein that has been conjugated KLH. As described above, this screen identifies HC-specific clones but not mAbs against the light chain constant region. Clones identified positive to the immunogen and KLH were […]. Those found positive to the immunogen but not to the non-family member Id protein or KLH were tittered on the immunogen. In addition to normalizing for different binding affinities and concentrations, each hybridoma supernatant was titered on the fully human form of the Id protein used as the immunogen(s) for the V regions. The titer or dilution resulting in an ELISA absorbance of 2.5 to 3 OD after 30 min. incubation time was then used. Hybridoma specificity was determined by screening against available Id proteins expressing the same HV and KV or LV as well as different HV, KV and LV. The final ELISA results are expressed as follows: 0 (<0.5 OD), 1 (0.5-1.0 OD), or 4 (1-4 OD). Positive hybridoma supernatants are categorized according to specificity: anti-Id, anti-constant region (HC, KC or LC), or V region (HV, KV, LV family or family member).
(§2) In general, the fully human Id protein or proteins containing the immunogen V regions were coated onto 96-well ELISA plates at 2.5-5 ug/mL in carbonate buffer pH 9.6 and incubated at 4° C. for up to 14 days. On the day of the ELISA, plates were brought to RT and blocked with Tris-Tween-20, pH 7.6 for 15-60 min. at RT. Following a NaCl and Triton X-100 wash, diluted hybridoma cell culture supernatants were incubated overnight at 4° C. Hybridoma supernatant dilutions ranged from 1:2 to 1:25 and were prepared in PBS with 5% BSA. Plates were washed and incubated with HRP-conjugated goat anti-mouse IgG-specific detecting antibody. A chromogenic substrate (TMB) was used to measure the amount of mouse antibody bound to each well. The reaction was stopped at or before 30 minutes with IN H2SO4 and plates were read immediately. Absorbency readings at 450 nm ranging between 0-4 OD and using Molecular Devices plate reader and SOFTMAX PRO software.

591 = biological target: T2, 591
T2 construct: H3-23 K4-1; also called PIN591
From the text: as §1, §2

952 = biological target: T3, 952
T3 construct: H3-66 K4-1; also called PIN952
From the text: as §1, §2

192 = biological target: T4, 192
T4 construct: H5-51 K4-1; also called PIN192
From the text: as §1, §2

792 = biological target: T5, 792
T5 construct: H1-3 K4-1; also called PIN792
From the text: as §1, §2

170 = biological target: T6, 170
T6 construct: H4-34 K4-1; also called PIN170
From the text: as §1, §2

529 = biological target: T7, 529
T7 construct: H3-48 K4-1; also called PIN529
From the text: as §1, §2

Measured: grade

B1: mAb clone 12C3 (antibody, V domains shown)
VH: EVKLVESGGGLVQPGGSLSLSCAASGFTYTDYYMNWVRQPPGKALEWLALIRNKANGYTTEYSASLKGRFTISRDNSQSILYLQMNALRAEDSATYYCVRENINYYFDYWGQGTTLTVSS
VL: DIVLTQSPASLAVSLGQRATISCRASESVEYFGASLMQWYQQKSGQPPKLLIRAATNVESGVPARFSGSGSGTDFSLNIHPVEEDDIAMYFCQQSRKVPWTFGGGTKLEIKR
notes: Mouse hybridoma mAb, fusions 20/21 (PIN628 V regions)
4: all assays above
